The text below walks through data of patent US20070243198A1 (ERA BIOTECH S A, published 2007).

The target in assay [1] is human EGF receptor on MDA-MB231 breast cancer cells (human) (UniProt P00533). Briefly: cell-based or functional assay.
Assay [2] addresses T1, hGH binding protein provided by the kit (Active Bioactive Human Growth Hormone ELISA DSL-10-11100, Diagnostic … (UniProt P10912 19-256)).
T1 sequence (looked up): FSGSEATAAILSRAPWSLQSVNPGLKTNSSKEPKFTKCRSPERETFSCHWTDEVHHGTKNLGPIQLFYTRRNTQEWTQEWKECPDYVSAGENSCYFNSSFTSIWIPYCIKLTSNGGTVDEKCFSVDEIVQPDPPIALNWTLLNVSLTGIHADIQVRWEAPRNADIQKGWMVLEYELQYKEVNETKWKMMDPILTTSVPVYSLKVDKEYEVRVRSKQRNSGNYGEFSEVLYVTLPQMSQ
The experiment in a line: bioactivity ELISA based on binding to the kit's hGH binding protein (DSL-10-11100). For orientation: ELISA stands for enzyme-linked immunosorbent assay.

With RX3-EGF fusion protein, in assay [1], the % proliferation with respect to Deprived cells (Mean), radioactive thymidine incorporation, 1.2 ng/mL stood at 146%.

B1: RX3 protein without a fusion partner (other)
chain: THTSGGCGCQPPPPVHLPPPVHLPPPVHLPPPVHLPPPVHLPPPVHLPPPVHVPPPVHLPPPPCHYPTQPPRPQPHPQPHPCPCQQPHPSPCQY
notes: also called control RX3 RPBLA preparations; isolated RX3 protein
With B1, in assay [2], the binding result is reported as “no binding”.
